First the molecules themselves.
B1: endogenous mature Omi from HEK293 cell extracts (38 kDa band) (enzyme)
chain: AVPSPPPASPRSQYNFIADVVEKTAPAVVYIEILDRHPFLGREVPISNGSGFVVAADGLIVTNAHVVADRRRVRVRLLSGDTYEAVVTAVDPVADIATLRIQTKEPLPTLPLGRSADVRQGEFVVAMGSPFALQNTITSGIVSSAQRPARDLGLPQTNVEYIQTDAAIDFGNSGGPLVNLDGEVIGVNTMKVTAGISFAIPSDRLREFLHRGEKKNSSSGISGSQRRYIGVMMLTLSPSILAELQLREPSFPDVQHGVLIHKVILGSPAHRAGLRPGDVILAIGEQMVQNAEDVYEAVRTQSQLAVQIRRGRETLTLYVTPEVTE
notes: also called HtrA2

Test [1] addresses T1, XIAP (human, UniProt P98170 1-497).
T1 construct: also called ^35S-labeled in vitro translated XIAP; ^35S-XIAP
The test can be described thus: far-western blot with ^35S-labeled in vitro translated XIAP. The text has this:
As mentioned above, the mechanism of IAP inhibition of caspases is conserved in mammals and insects. Accordingly, it is thought that other mammalian IAP-binding proteins are still undiscovered. To identify such proteins, a GST-BIR3 fusion protein was used as an affinity reagent to purify new IAP binding proteins from extracts of human HEK293 cells and mouse heart, kidney, liver and spleen tissues. […] Cells were homogenized and centrifuged once at 20,000×g and the supernatant was then subjected to centrifugation at 100,000×g. The resultant supernatant was pre-cleared with Glutathion-Sepharose beads and then incubated with GST-BIR3 bound to Glutathion-Sepharose beads for 12 hours at 4° C. The mixture was centrifuged at 500 rpm for three minutes and the GST-BIR3 bead pellet was washed three times in the lysis buffer. After binding the extracts to the GST-BIR3 protein, the bound proteins were eluted with 200 μM of the Smac IAP-binding motif peptide AVPIA (SEQ ID NO:2) at 37° C. for one hour and analyzed by far-western blotting with ³⁵S-labeled in vitro translated XIAP. Specifically, the affinity-purified proteins were subjected to SDS-PAGE electrophoresis and then transferred to a nitrocellulose membrane using standard western blotting technique. […]

Test [2] has as its target B1. The test can be described thus: immunodepletion of 293 extracts with Smac monoclonal antibody, then GST-BIR3 pull-down. As for the experimental part:
The undepleted and depleted extracts were incubated with the GST-BIR3 protein and the bound proteins were eluted as above. The eluates were then analyzed by far-western blotting with ³⁵S-XIAP and by western blotting with the Smac antibody as described above (see FIG. 4, left and right panels, respectively). […] The asterisk in FIG. 4 indicates non-specific bands and the arrow indicates the IgG band.

The target in test [3] is T1, XIAP. The test can be described thus: co-immunoprecipitation with Flag antibody from 293T cells, XIAP immunoblot.
Test [4] concerns the target T2, M-Omi-S/A-GFP (inactive S306A Omi-GFP fusion protein without the MTS, initiator methionine retained) (human, UniProt O43464 134-458).
T2 construct: not shown: C-terminal GFP tag
T2 sequence: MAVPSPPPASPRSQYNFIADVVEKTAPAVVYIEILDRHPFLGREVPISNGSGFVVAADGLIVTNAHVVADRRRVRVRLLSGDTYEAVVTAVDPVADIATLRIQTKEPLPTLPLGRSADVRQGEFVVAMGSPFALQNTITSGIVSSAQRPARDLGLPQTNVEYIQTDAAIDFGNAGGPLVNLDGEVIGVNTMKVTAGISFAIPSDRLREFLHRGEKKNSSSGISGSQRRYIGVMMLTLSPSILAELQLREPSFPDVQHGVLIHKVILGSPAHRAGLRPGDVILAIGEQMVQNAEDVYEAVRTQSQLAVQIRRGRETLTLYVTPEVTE
The test can be described thus: GST-BIR3 precipitation of transfected cell extracts, immunoblot.

The target in test [5] is T3, M-Omi-GFP (active Omi-GFP fusion protein without the MTS, initiator methionine retained) (human, UniProt O43464 134-458).
T3 construct: also called Omi134-458-GFP; not shown: C-terminal GFP tag
T3 sequence: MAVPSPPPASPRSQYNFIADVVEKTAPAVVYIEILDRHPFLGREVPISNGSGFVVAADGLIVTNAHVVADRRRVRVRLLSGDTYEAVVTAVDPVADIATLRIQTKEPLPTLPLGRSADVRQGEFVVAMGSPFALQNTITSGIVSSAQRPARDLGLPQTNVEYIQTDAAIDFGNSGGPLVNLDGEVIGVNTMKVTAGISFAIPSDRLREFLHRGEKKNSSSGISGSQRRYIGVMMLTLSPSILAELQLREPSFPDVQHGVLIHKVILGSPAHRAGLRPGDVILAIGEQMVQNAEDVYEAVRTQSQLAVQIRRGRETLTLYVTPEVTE
Described as above.

The target of test [6] is T4, Omi-S/A with the AVPS motif mutated to SSAS, from GFP-IETD-SSA (human, UniProt O43464 137-458).
T4 construct: expressed as GFP-IETD fusion
T4 sequence: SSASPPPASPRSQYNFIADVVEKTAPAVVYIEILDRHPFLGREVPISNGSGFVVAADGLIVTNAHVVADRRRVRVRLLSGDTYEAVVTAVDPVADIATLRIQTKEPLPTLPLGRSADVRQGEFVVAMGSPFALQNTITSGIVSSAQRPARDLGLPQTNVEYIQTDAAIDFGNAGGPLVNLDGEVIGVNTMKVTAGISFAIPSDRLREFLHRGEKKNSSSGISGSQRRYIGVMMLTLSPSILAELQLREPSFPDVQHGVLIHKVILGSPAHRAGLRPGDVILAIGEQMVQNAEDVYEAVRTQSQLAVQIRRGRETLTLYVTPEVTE
The test can be described thus: GST-BIR3 precipitation of transfected 293T cell extracts, Flag immunoblot.

The target of test [7] is T5, Omi-deltaAVPS (C-terminal His6-tagged recombinant mature Omi with the AVPS motif deleted) (human, UniProt O43464 138-458).
T5 construct: also called Omi-ΔAVPS
T5 sequence: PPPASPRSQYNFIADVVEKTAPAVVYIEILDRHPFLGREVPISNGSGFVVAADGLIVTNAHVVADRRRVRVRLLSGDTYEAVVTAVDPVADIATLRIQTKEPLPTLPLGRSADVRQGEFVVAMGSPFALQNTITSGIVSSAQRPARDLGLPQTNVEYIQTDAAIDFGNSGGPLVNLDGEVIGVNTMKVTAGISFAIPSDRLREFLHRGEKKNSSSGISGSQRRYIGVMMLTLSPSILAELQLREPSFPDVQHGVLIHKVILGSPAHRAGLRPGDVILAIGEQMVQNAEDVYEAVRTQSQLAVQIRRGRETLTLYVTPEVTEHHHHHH
The test can be described thus: GST pull-down with purified recombinant proteins, Coomassie gel. From the text:
To determine whether a recombinant Omi lacking the first 133 residues (mature Omi) can interact with the GST-BIR3 fusion protein, this protein was expressed with a C-terminal His6 tag in bacteria and purified to apparent homogeneity (see FIG. 7B). […] FIGS. 7A and 7B show scanned images of Coomassie stained gels representing SDS-PAGE analysis of purified C-terminal His6-tagged recombinant wild type mature Omi (WT), Omi-ΔAVPS, Omi-S306A, and mature Smac (FIG. 7A) and recombinant Omi and Smac proteins with GST-BIR1, 2, GST-BIR3 or GST-BIR3-E314S fusion proteins (FIG. 7B). Both recombinant mature Omi and Smac were able to interact equally with the wild type GST-BIR3 protein but not with the GST-BIR3-E314S mutant ([…]). Mature Omi and Smac were also able to interact with the GST-BIR1, 2 fusion protein. […] However, deletion of the AVPS motif of mature Omi completely abolished its interaction with the GST-BIR3 fusion protein.

T1 sequence (P98170 whole entry): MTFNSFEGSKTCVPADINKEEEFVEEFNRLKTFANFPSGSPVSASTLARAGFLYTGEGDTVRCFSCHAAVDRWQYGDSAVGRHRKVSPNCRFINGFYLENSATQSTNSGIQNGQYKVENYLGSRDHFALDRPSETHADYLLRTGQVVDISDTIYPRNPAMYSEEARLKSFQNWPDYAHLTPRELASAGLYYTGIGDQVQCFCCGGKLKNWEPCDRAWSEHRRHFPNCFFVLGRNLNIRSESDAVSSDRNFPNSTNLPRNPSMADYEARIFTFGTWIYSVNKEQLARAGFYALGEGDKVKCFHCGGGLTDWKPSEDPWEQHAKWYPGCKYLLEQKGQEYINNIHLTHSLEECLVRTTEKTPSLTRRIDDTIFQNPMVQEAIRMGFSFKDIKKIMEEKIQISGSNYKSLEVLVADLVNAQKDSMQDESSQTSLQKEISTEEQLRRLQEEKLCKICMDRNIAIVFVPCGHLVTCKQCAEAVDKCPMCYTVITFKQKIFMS

In the case of B1, the binding result in test [1] is listed as “binds”.

B2: endogenous mature Smac/Diablo from HEK293 cell extracts (23 kDa band) (other, human, UniProt Q9NR28 56-239, looked up)
chain: AVPIAQKSEPHSLSSEALMRRAVSLVTDSTSTFLSQTTYALIEAITEYTKAVYTLTSLYRQYTSLLGKMNSEEEDEVWQVIIGARAEMTSKHQEYLKLETTWMTAVGLSEMAAEAAYQTGADQASITARNHIQLVKLQVEEVHQLSRKAETKLAEAQIEELRQKTQEEGEERAESEQEAYLRED
notes: mature
Consider B2, for which the binding result in test [2] was “no binding”.

B3: mature Omi with the AVPS motif mutated to AAAS, processed in 293T cells from a C-terminal Flag-tagged mutant precursor (enzyme)
chain: AAASPPPASPRSQYNFIADVVEKTAPAVVYIEILDRHPFLGREVPISNGSGFVVAADGLIVTNAHVVADRRRVRVRLLSGDTYEAVVTAVDPVADIATLRIQTKEPLPTLPLGRSADVRQGEFVVAMGSPFALQNTITSGIVSSAQRPARDLGLPQTNVEYIQTDAAIDFGNSGGPLVNLDGEVIGVNTMKVTAGISFAIPSDRLREFLHRGEKKNSSSGISGSQRRYIGVMMLTLSPSILAELQLREPSFPDVQHGVLIHKVILGSPAHRAGLRPGDVILAIGEQMVQNAEDVYEAVRTQSQLAVQIRRGRETLTLYVTPEVTE
notes: also called AAAS mutant; not shown: C-terminal Flag tag
As for B3, in test [3], the binding result is “no binding”.

B4: GST-BIR3 fusion protein (BIR3 domain of human XIAP fused to GST) (other, UniProt P98170 238-358, looked up)
chain: RSESDAVSSDRNFPNSTNLPRNPSMADYEARIFTFGTWIYSVNKEQLARAGFYALGEGDKVKCFHCGGGLTDWKPSEDPWEQHAKWYPGCKYLLEQKGQEYINNIHLTHSLEECLVRTTEK
notes: domain: BIR3; also called wild type GST-BIR3; XIAP-BIR3; not shown: glutathione-S-transferase (GST) fusion partner
B4: the binding result in test [4], in test [5], in test [6] and in test [7] was “no binding” in each case.
